According to patent publication US20250011428A1:
Residue numbers refer to the chain shown, from its start.

B1: CD3_2 (antibody, human IgG1, lambda)
heavy: EVQLVESGGGLVQPGGSLKLSCAASGFTFNTYAMNWVRQASGKGLEWVGRIRSKYNNYATYYADSVKDRFTISRDDSKSTLYLQMNSLKTEDTAVYYCVRHGNFGNSYVSWFAYWGQGTLVTVSSASTKGPSVFPLAPSSKSTSGGTAALGCLVKDYFPEPVTVSWNSGALTSGVHTFPAVLQSSGLYSLSSVVTVPSSSLGTQTYICNVNHKPSNTKVDKRVEPKSCDKTHTCPPCPAPELCCHPSVFLFPPKPKDTLMISRTPEVTCVVVGLRHEDPEVKFNWYVDGVEVHNAKTKPREEQYCGCYRVVSVLTVLHQDWLNGKEYKCKVSNKALPAPIEKTISKAKGQPREPQVYTLPPSRDELTKNQVSLTCLVKGFYPSDIAVEWESNGQPENNYKTTPPVLDSDGSFFLYSKLTVDKSRWQQGNVFSCSVMHEALHNHYTQKSLSLSPGK
light: QAVVTQEPSLTVSPGGTVTLTCRSSTGAVTTSNYANWVQQKPGQAPRGLIGGTNKRAPWTPARFSGSLLGDKAALTLSGAQPEDEAEYFCALWYSNLWVFGGGTKLTVLGQPKAAPSVTLFPPSSEELQANKATLVCLISDFYPGAVTVAWKADSSPVKAGVETTTPSKQSNNKYAASSYLSLTPEQWKSHRSYSCQVTHEGSTVEKTVAPTECS
B2: CD3_5 (antibody, human IgG1, lambda)
heavy: B1 heavy with H245G, G273D, L274V, R275S, G306S
light: B1 light
B3: CD3_3_YTE (antibody, human IgG1, lambda)
heavy: B1 heavy with M260Y, S262T, T264E, V272T, H276D
light: B1 light
B4: CD3_3 (antibody, human IgG1, lambda)
heavy: B1 heavy with V272T, H276D
light: B1 light
B5: CD3_5_YTE (antibody, human IgG1, lambda)
heavy: B1 heavy with H245G, M260Y, S262T, T264E, G273D, L274V, R275S, G306S
light: B1 light
B6: CD3_2_YTE (antibody, human IgG1, lambda)
heavy: B1 heavy with M260Y, S262T, T264E
light: B1 light
B7: IgG4_CD3_9_YTE (antibody)
heavy: EVQLVESGGGLVQPGGSLKLSCAASGFTFNTYAMNWVRQASGKGLEWVGRIRSKYNNYATYYADSVKDRFTISRDDSKSTLYLQMNSLKTEDTAVYYCVRHGNFGNSYVSWFAYWGQGTLVTVSSASTKGPSVFPLAPCSRSTSESTAALGCLVKDYFPEPVTVSWNSGALTSGVHTFPAVLQSSGLYSLSSVVTVPSSSLGTKTYTCNVDHKPSNTKVDKRVESKYGPPCPSCPAPEFCGGPSVFLFPPKPKDTLYITREPEVTCVVVDVSQEDPEVQFNWYVDGVEVHNAKTKPREEQFNSTYRVVSVLTVLHQDWLNGKEYKCKVSNKGLPSSIEKTISKAKGQPREPQVYTLPPSQEEMTKNQVSLTCLVKGFYPSDIAVEWESNGQPENNYKTTPPVLDSDGSFFLYSRLTVDKSRWQEGNVFSCSVMHEALHNHYTQKSLSLSL
light: B1 light
B8: CD3_DANAPA_YTE (antibody, human IgG1, lambda, N297A)
heavy: EVQLVESGGGLVQPGGSLKLSCAASGFTFNTYAMNWVRQASGKGLEWVGRIRSKYNNYATYYADSVKDRFTISRDDSKSTLYLQMNSLKTEDTAVYYCVRHGNFGNSYVSWFAYWGQGTLVTVSSASTKGPSVFPLAPSSKSTSGGTAALGCLVKDYFPEPVTVSWNSGALTSGVHTFPAVLQSSGLYSLSSVVTVPSSSLGTQTYICNVNHKPSNTKVDKRVEPKSCDKTHTCPPCPAPELLGGPSVFLFPPKPKDTLYITREPEVTCVVVAVSHEDPEVKFNWYVDGVEVHNAKTKPREEQYASTYRVVSVLTVLHQDWLNGKEYKCKVSNKALAAPIEKTISKAKGQPREPQVYTLPPSRDELTKNQVSLTCLVKGFYPSDIAVEWESNGQPENNYKTTPPVLDSDGSFFLYSKLTVDKSRWQQGNVFSCSVMHEALHNHYTQKSLSLSPGK
light: B1 light
B9: CD3_4_YTE (antibody, human IgG1, lambda)
heavy: B1 heavy with M260Y, S262T, T264E, G273D, L274V, R275S
light: B1 light
B10: IgG4_CD3_S228P_YTE (antibody)
heavy: B7 heavy with S233P, C240L
light: B1 light
B11: IgG4_CD3_8_YTE (antibody)
heavy: B7 heavy with C240L, G241C
light: B1 light
B12: CD3_4 (antibody, human IgG1, lambda)
heavy: B1 heavy with G273D, L274V, R275S
light: B1 light
B13: IgG4_CD3_WT_YTE (antibody)
heavy: B7 heavy with C240L
light: B1 light
B14: CD3_1_YTE (antibody, human IgG1, lambda)
heavy: B1 heavy with S247R, M260Y, S262T, T264E, V272T, H276D, R309S
light: B1 light
B15: IgG4_CD3_6 (antibody)
heavy: B7 heavy with G241C, Y257M, T259S, E261T
light: B1 light
B16: CD3_1 (antibody, human IgG1, lambda)
heavy: B1 heavy with S247R, V272T, H276D, R309S
light: B1 light
B17: IgG4_CD3_8 (antibody)
heavy: B7 heavy with C240L, G241C, Y257M, T259S, E261T
light: B1 light
B18: IgG4_CD3_6_YTE (antibody)
heavy: B7 heavy with G241C
light: B1 light

biological target: Gamma receptors FcγRI, FcγRII, and FcγRIII expressed on THP-1 cells; assay: cell-based or functional assay

Row | Maximum response in RGA assay (LU) | Binder
1 | 25500 LU | B1
2 | 19900 LU | B2
3 | 13100 LU | B3
4 | 23200 LU | B4
5 | 13100 LU | B5
6 | 11900 LU | B6
7 | 5610 LU | B7
8 | 12300 LU | B8
9 | 16500 LU | B9
10 | 34900 LU | B10
11 | 6450 LU | B11
12 | 24900 LU | B12
13 | 31800 LU | B13
14 | 12000 LU | B14
15 | 12000 LU | B15
16 | 24700 LU | B16
17 | 7040 LU | B17
18 | 7910 LU | B18

biological target: hC1q (human) (UniProt P02745); assay: SPR Biacore T200; IgG amine-coupled on CM5, hC1q as analyte; response normalized to parental (=100)
Sequence (P02745 23-245 limits assumed, chain 1 of 3): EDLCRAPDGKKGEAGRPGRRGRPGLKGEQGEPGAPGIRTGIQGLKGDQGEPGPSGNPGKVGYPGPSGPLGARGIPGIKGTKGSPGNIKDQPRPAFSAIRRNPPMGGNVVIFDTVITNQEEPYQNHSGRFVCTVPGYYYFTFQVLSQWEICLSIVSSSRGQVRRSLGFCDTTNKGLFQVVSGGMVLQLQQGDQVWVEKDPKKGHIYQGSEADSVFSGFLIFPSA
Sequence (P02746 28-253 limits assumed, chain 2 of 3, further chain): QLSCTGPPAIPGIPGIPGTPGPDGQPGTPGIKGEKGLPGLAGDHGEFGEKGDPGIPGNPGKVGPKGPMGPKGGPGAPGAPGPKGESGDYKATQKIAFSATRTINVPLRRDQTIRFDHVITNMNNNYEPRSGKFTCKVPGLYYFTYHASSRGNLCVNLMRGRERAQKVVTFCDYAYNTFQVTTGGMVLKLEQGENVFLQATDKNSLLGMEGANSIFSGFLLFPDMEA
Sequence (P02747 29-245 limits assumed, chain 3 of 3, further chain): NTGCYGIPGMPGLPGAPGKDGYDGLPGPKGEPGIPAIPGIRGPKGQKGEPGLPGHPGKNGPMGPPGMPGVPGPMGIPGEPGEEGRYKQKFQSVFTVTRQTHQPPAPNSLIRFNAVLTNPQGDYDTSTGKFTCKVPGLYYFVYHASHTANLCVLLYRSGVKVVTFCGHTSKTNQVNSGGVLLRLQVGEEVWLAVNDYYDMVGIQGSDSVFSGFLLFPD

Row | Maximum response at 20 nM hC1q (RU) | Binder
19 | 7 RU | B1
20 | 7 RU | B4
21 | 9 RU | B12
